Laboratory results taken from PMC2195629.

Target: Glycocalicin, the soluble extracellular portion of human GP Ibα (human) (UniProt P07359)
Assay: cell adhesion assay

Sequence of UniProt P07359 (P07359 17-531): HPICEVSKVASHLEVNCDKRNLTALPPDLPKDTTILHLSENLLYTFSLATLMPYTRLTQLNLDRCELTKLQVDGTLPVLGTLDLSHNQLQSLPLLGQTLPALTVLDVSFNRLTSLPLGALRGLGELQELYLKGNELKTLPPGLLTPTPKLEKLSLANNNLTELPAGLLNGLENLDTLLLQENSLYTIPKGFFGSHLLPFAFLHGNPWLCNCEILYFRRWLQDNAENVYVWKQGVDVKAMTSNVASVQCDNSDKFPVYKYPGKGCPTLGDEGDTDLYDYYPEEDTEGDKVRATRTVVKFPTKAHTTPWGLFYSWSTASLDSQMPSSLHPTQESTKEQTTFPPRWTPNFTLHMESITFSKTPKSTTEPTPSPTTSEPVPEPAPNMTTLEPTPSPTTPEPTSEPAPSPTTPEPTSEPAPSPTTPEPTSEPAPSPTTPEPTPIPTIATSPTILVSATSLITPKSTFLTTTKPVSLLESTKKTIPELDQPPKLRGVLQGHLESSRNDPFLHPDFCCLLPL

fold adhesion over untransfected CHO cells: 5 fold
Substance: phosphatidylinositol glycan–linked form of P-selectin on CHO cells (CHO-P) (from UniProt P16109 42-830) (receptor)
